In US20040253234A1 (Kyowa Kirin, published 2004):

T1: C-terminus-biotin labeled compound 1 (an N-terminus peptide of FGF-8; SEQ ID NO:15) (human, C-terminus-biotin labeled)
T1 construct: also called FGF-8 peptide
T1 peptide: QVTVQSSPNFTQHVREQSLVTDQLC

T2: BSA-compound 1 conjugate (human FGF-8 peptide Compound 1, SEQ ID NO:15, conjugated to bovine serum albumin) (human, conjugated to bovine serum albumin through SMCC)
T2 construct: The BSA carrier is not written as a chain
T2 peptide: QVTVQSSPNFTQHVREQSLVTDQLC

T3: FGF-8 (manufactured by R&D) (UniProt P55075-3 23-215, limits assumed)
T3 sequence (looked up): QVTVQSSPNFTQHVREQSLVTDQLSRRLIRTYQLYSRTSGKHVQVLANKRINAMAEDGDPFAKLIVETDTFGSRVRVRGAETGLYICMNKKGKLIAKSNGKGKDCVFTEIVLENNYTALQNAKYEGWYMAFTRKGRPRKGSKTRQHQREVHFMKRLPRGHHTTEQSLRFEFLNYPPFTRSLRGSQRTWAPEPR

B1: anti-FGF-8 CDR-grafted antibody HV0LV3-1/CHO (antibody, V domains shown)
VH: QVQLVQSGAEVKKPGASVKVSCKASGYTFTDYYLNWVRQAPGQGLEWMGEIDPGSDSIYYNENLEGRVTITADTSTSTAYMELSSLRSEDTAVYYCARYGYSRYDVRFVYWGQGTLVTVSS
VL: DVVMTQSPLSLPVTPGEPASISCRSSQSLVHSNGRTYLEWYLQKPGQSPQVLIYKVSNRISGVPDRFSGSGSGTDFTLKISRVEAEDVGVYFCFQGSHVPYTFGQGTKVEIK
notes: CHO/DG44-derived; also called KM8036
B2: anti-FGF-8 chimeric antibody KM3034 (antibody, V domains shown)
VH: QVQLQQSGAEVARPGASVKLSCKASGYTFTDYYLNWVKQRSGQGLEWIGEIDPGSDSIYYNENLEGRATLTADKSSSTAYMQLNSLTSEDSAVYFCARYGYSRYDVRFVYWGQGTLVTVST
VL: DVLMTQTPLSLPVSLGDQASISCRSSQSLVHSNGRTYLEWYLQKPGQSPKVLIYKVSNRISGVPDRFSGSGSGTDFTLKISRVEAEDLGVYFCFQGSHVPYTFGGGTKLEIK
notes: Human chimeric antibody with human gamma1 CH and human kappa CL (vector pKANTEX1334, from pKANTEX93), expressed in CHO/DG44 cells; also called CHO/DG44-derived anti-FGF-8 chimeric antibody
B3: anti-FGF-8 CDR-grafted antibody HV0LV6 (antibody, V domains shown)
VH: QVQLVQSGAEVKKPGASVKVSCKASGYTFTDYYLNWVRQAPGQGLEWMGEIDPGSDSIYYNENLEGRVTITADTSTSTAYMELSSLRSEDTAVYYCARYGYSRYDVRFVYWGQGTLVTVSS
VL: DVVMTQSPLSLPVSLGEPASISCRSSQSLVHSNGRTYLEWYLQKPGQSPKVLIYKVSNRISGVPDRFSGSGSGTDFTLKISRVEAEDVGVYFCFQGSHVPYTFGQGTKVEIK
notes: YB2/0-derived, vector pKANTEX1334HV0LV6 (from pKANTEX93, human constant regions); also called KM8037
B4: anti-FGF-8 chimeric antibody KM3334 (antibody, V domains shown)
VH: QVQLQQSGAEVARPGASVKLSCKASGYTFTDYYLNWVKQRSGQGLEWIGEIDPGSDSIYYNENLEGRATLTADKSSSTAYMQLNSLTSEDSAVYFCARYGYSRYDVRFVYWGQGTLVTVST
VL: DVLMTQTPLSLPVSLGDQASISCRSSQSLVHSNGRTYLEWYLQKPGQSPKVLIYKVSNRISGVPDRFSGSGSGTDFTLKISRVEAEDLGVYFCFQGSHVPYTFGGGTKLEIK
notes: Same expression vector pKANTEX1334 as KM3034 (human gamma1 / kappa constant regions), expressed in YB2/0 cells; also called KiM3334; YB2/0-derived anti-FGF-8 chimeric antibody
B5: anti-FGF-8 CDR-grafted antibody HV0LV3-3/CHO (antibody, V domains shown)
VH: QVQLVQSGAEVKKPGASVKVSCKASGYTFTDYYLNWVRQAPGQGLEWMGEIDPGSDSIYYNENLEGRVTITADTSTSTAYMELSSLRSEDTAVYYCARYGYSRYDVRFVYWGQGTLVTVSS
VL: DIVMTQSPLSLPVSLGEPASISCRSSQSLVHSNGRTYLEWYLQKPGQSPQVLIYKVSNRISGVPDRFSGSGSGTDFTLKISRVEAEDVGVYYCFQGSHVPYTFGQGTKVEIK
B6: anti-FGF-8 CDR-grafted antibody HV0LV4-3/CHO (antibody, V domains shown)
VH: QVQLVQSGAEVKKPGASVKVSCKASGYTFTDYYLNWVRQAPGQGLEWMGEIDPGSDSIYYNENLEGRVTITADTSTSTAYMELSSLRSEDTAVYYCARYGYSRYDVRFVYWGQGTLVTVSS
VL: DIVMTQSPLSLPVSLGEPASISCRSSQSLVHSNGRTYLEWYLQKPGQSPQVLIYKVSNRISGVPDRFSGSGSGTDFTLKISRVEAEDVGVYFCFQGSHVPYTFGQGTKVEIK
notes: CHO/DG44-derived; also called KM8035
B7: anti-FGF-8 CDR-grafted antibody HV6LV6 (antibody, V domains shown)
VH: QVQLVQSGAEVARPGASVKVSCKASGYTFTDYYLNWVRQRSGQGLEWIGEIDPGSDSIYYNENLEGRVTITADTSTSTAYMELSSLRSEDTAVYFCARYGYSRYDVRFVYWGQGTLVTVSS
VL: DVVMTQSPLSLPVSLGEPASISCRSSQSLVHSNGRTYLEWYLQKPGQSPKVLIYKVSNRISGVPDRFSGSGSGTDFTLKISRVEAEDVGVYFCFQGSHVPYTFGQGTKVEIK
notes: YB2/0-derived, vector pKANTEX1334HV6LV6 (from pKANTEX93, human constant regions)
B8: anti-FGF-8 CDR-grafted antibody HV0LV6/CHO (antibody, V domains shown)
VH: QVQLVQSGAEVKKPGASVKVSCKASGYTFTDYYLNWVRQAPGQGLEWMGEIDPGSDSIYYNENLEGRVTITADTSTSTAYMELSSLRSEDTAVYYCARYGYSRYDVRFVYWGQGTLVTVSS
VL: DVVMTQSPLSLPVSLGEPASISCRSSQSLVHSNGRTYLEWYLQKPGQSPKVLIYKVSNRISGVPDRFSGSGSGTDFTLKISRVEAEDVGVYFCFQGSHVPYTFGQGTKVEIK
notes: CHO/DG44-derived, vector pKANTEX1334HV0LV6; also called KM8034
B9: anti-FGF-8 CDR-grafted antibody HV0LV0 (antibody, V domains shown)
VH: QVQLVQSGAEVKKPGASVKVSCKASGYTFTDYYLNWVRQAPGQGLEWMGEIDPGSDSIYYNENLEGRVTITADTSTSTAYMELSSLRSEDTAVYYCARYGYSRYDVRFVYWGQGTLVTVSS
VL: DIVMTQSPLSLPVTPGEPASISCRSSQSLVHSNGRTYLEWYLQKPGQSPQLLIYKVSNRISGVPDRFSGSGSGTDFTLKISRVEAEDVGVYYCFQGSHVPYTFGQGTKVEIK
notes: YB2/0-derived, vector pKANTEX1334HV0LV0 (from pKANTEX93, human constant regions)
B10: anti-FGF-8 CDR-grafted antibody HV0LV0/CHO (antibody, V domains shown)
VH: QVQLVQSGAEVKKPGASVKVSCKASGYTFTDYYLNWVRQAPGQGLEWMGEIDPGSDSIYYNENLEGRVTITADTSTSTAYMELSSLRSEDTAVYYCARYGYSRYDVRFVYWGQGTLVTVSS
VL: DIVMTQSPLSLPVTPGEPASISCRSSQSLVHSNGRTYLEWYLQKPGQSPQLLIYKVSNRISGVPDRFSGSGSGTDFTLKISRVEAEDVGVYYCFQGSHVPYTFGQGTKVEIK
notes: CHO/DG44-derived, vector pKANTEX1334HV0LV0

Tests used:
[1] = biological target: T1, C-terminus-biotin labeled compound 1 …; assay: BIAcore 2000, C-terminus-biotin labeled FGF-8 peptide on SA chip, antibody as analyte, RU compared
Method: In order to examine the activity of various anti-FGF-8 CDR-grafted antibodies obtained in the item 5 of Example 3 to bind to FGF-8 in more detail, activities of various anti-FGF-8 CDR-grafted antibodies to bind to FGF-8 were measured and compared as follows by using BIAcore 2000 (manufactured by BIACORE). The CHO/DG44-derived anti-FGF-8 chimeric antibody KM3034 obtained in the item 3(1) of Example 1 was used as a positive control.
Hereinbelow, HBS-EP (manufactured by Pharmacia) was used as the buffer solution for dilution of samples and during the measurement. First, a sensor tip SA (manufactured by BIACORE) was set, and 5 μl of a C-terminus-biotin labeled compound 1 (an N-terminus peptide of FGF-8; SEQ ID NO:15) prepared to a solution of 0.05 μg/ml was added thereto at a flow rate of 20μl/minute. Thereafter, the tip surface was washed by adding 5 μl of 10 mmol/l Glycine-HCl buffer (pH 1.5) continuously twice. Immobilized amount of the FGF-8 peptide was 35 RU.
To the FGF-8 peptide immobilized flow cell, 60 μl of each antibody solution was added at a flow rate of 20 μl/minute, and then the dissociation reaction was monitored for 3 minutes. After the dissociation reaction, the tip surface was regenerated by adding 20 μl of 10 mmol/l Glycine-HCl buffer (pH 1.5) continuously twice. This cycle was carried out for antibody solutions of various concentrations (50 to 1.85 μg/ml), and a sensorgram at each concentration was obtained. The sensorgram of each antibody was made into a sensorgram of specific reaction by subtracting a sensorgram obtained using a chimeric antibody KM871 for GD3 [Cancer Immunol. Immunother., 36, 373 (1993)] as a negative control.

[2] = biological target: T2, BSA-compound 1 conjugate (human FGF-8 …); assay: ELISA, plate-coated BSA-compound 1 conjugate, anti-human IgG-peroxidase detection
Method: (§1) The conjugate prepared in the above was dispensed at 50 μl/well into a 96 well plate for ELISA (manufactured by Greiner) at a concentration of 0.5 to 1.0 μg/ml and allowed to stand for adsorption overnight at 4° C. After washing with PBS, 1% BSA-containing PBS (BSA-PBS) was added at 100 μl/well and allowed for blocking of remaining active groups to react at room temperature for 1 hour. After washing each well with 0.05% Tween-containing PBS (Tween-PBS), culture supernatants of transformants or purified antibodies were added at 50 μl/well and allowed to react at room temperature for 1 hour. After the reaction, each well was washed with Tween-PBS and then a peroxidase-labeled goat anti-human IgG (H & L) antibody solution (manufactured by American Qualex) diluted 3,000 to 6,000-folds with BSA-PBS was added as a secondary antibody solution at 50 μl/well and allowed to react at room temperature for 1 hour. After the reaction and subsequent washing with Tween-PBS, an ABTS substrate solution [a solution prepared by dissolving 0.55 g of 2,2′-azinobis(3-ethylbenzothiazoline-6-sulfonic acid) ammonium in 1 L of 0.1 M citrate buffer (pH 4.2) and adding 1 μl/ml hydrogen peroxide just before use] was added at 50 μl/well for color development, and the reaction was stopped by adding 5% SDS solution at 50 µl/well. Thereafter, absorbance at 415 nm (OD415) was measured.
The activity of various anti-FGF-8 CDR-grafted antibodies obtained in the item 4 of Example 2 to bind to FGF-8 was measured by the ELISA described in the item 2(6) of Example 1. The YB2/0-derived anti-FGF-8 chimeric antibody KM3334 obtained in the item 3(2) of Example 1 was used as a positive control.

[3] = biological target: T2, BSA-compound 1 conjugate (human FGF-8 …); assay: ELISA, plate-coated BSA-compound 1 conjugate, anti-human IgG-peroxidase detection; positive control
Method: as §1, with “After the reaction and subsequent washing with Tween-PBS, an ABTS substrate solution [a solution prepared by dissolving 0.55 g of 2,2′-azinobis(3-ethylbenzothiazoline-6-sulfonic acid) ammonium in 1 L of 0.1 M citrate buffer (pH 4.2) and adding 1 μl/ml hydrogen peroxide just before use] was added at 50 μl/well for color development, and the reaction was stopped by adding 5% SDS solution at 50 µl/well.” left out
The activity of various anti-FGF-8 CDR-grafted antibodies obtained in the item 4 of Example 2 to bind to FGF-8 was measured by the ELISA described in the item 2(6) of Example 1. […]

[4] = biological target: T3, FGF-8 (manufactured by R&D); assay: cell-based or functional assay

Binder	binding result [1]	binding result [2]	further results
B1	binds		
B2	binds		
B3		binds	
B4			binding result [3]: binds
B5			FGF-8 neutralization activity (FGF-8-dependent growth of SC-3 cells) [4]: ~0.5 fold of the activity of KM3034
B6	binds		FGF-8 neutralization activity (FGF-8-dependent growth of SC-3 cells) [4]: ~0.5 fold of the activity of KM3034
B7		binds	
B8	binds		
B9		binds	
B10	binds		
